Results from patent publication US20260250420A1 (SICHUAN KELUN BIOTECH BIOPHARMACEUTICAL, published 2026).

T1: human PTK7 on cells (tumor cells endogenously expressing PTK7); CHO-hPTK7, CHO-S-hPTK7 and 293T-hPTK7 … (human, UniProt Q13308 31-1070)
T1 sequence (looked up): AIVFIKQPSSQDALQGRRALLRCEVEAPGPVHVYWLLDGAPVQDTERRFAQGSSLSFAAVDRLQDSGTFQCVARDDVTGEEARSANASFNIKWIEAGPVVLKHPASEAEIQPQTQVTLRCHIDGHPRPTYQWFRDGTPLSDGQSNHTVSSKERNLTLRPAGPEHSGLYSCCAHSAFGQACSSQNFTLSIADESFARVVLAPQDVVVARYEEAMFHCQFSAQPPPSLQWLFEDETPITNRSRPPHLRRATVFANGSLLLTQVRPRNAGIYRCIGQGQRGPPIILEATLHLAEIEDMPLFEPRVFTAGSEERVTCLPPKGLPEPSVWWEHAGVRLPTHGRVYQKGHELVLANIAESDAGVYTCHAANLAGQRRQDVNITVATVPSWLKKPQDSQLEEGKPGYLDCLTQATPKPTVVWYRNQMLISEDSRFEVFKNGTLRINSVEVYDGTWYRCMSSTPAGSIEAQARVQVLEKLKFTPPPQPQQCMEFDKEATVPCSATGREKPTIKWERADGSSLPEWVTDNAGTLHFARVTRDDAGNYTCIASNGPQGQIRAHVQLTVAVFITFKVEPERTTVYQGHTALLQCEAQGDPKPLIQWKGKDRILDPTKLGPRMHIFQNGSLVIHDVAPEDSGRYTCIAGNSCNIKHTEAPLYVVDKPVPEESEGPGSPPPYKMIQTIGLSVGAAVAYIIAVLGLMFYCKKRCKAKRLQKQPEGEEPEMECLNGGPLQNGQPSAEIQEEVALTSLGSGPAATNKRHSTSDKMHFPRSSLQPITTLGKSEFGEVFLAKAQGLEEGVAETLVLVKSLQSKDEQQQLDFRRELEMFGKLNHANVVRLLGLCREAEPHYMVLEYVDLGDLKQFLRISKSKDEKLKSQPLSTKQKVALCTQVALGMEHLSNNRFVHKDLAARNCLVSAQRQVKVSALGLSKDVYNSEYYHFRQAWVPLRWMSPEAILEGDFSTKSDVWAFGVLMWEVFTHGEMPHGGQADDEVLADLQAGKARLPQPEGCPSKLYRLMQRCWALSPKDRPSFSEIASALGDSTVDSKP

T2: monkey PTK7 protein (extracellular sequence of monkey PTK7 with C-terminal 6×His tag) (monkey)
T2 chain: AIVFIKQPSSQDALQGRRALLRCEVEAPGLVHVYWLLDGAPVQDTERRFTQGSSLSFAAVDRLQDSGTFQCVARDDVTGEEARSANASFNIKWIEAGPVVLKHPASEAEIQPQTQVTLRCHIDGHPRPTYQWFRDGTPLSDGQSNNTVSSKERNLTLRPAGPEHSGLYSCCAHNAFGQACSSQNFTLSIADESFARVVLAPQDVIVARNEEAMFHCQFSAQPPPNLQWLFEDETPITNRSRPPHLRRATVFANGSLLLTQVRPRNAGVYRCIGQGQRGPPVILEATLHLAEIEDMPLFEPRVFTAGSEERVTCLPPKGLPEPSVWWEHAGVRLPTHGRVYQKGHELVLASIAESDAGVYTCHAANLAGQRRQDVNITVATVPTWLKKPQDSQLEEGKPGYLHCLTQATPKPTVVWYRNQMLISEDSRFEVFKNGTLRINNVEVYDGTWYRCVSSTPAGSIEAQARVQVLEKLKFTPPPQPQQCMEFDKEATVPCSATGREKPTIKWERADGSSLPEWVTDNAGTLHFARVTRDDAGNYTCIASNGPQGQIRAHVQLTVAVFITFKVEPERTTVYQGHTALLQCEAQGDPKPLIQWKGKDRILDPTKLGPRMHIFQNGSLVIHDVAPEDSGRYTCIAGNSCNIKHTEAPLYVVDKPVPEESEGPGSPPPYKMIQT

T3: human PTK7 protein (extracellular sequence of human PTK7 with C-terminal 6×His tag) (human, UniProt Q13308 31-704)
T3 construct: extracellular domain; Expressed transiently in HEK293 cells; also called human PTK7-His; human PTK7-His protein
T3 sequence: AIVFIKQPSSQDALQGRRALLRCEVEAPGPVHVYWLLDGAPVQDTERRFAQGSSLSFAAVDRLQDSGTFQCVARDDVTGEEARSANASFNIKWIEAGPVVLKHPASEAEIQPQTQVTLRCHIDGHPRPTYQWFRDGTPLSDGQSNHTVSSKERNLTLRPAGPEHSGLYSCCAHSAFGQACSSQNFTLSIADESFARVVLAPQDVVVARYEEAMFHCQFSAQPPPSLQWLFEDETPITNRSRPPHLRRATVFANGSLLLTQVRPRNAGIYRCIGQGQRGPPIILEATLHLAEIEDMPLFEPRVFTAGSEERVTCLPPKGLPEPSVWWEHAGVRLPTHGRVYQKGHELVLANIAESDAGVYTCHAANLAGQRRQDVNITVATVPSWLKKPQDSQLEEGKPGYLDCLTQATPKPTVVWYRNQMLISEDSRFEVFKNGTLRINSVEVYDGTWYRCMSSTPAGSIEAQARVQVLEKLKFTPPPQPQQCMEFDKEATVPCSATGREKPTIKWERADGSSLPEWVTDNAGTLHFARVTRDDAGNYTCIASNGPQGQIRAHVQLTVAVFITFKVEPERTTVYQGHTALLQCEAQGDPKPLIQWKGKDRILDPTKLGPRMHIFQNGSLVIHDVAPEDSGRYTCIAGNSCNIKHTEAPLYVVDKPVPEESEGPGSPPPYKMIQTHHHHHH

B1: 19C2HZ (anti-human PTK7 humanized antibody) (antibody, human IgG1, kappa, V domains shown)
VH: QVTLKESGPTLVKPTQTLTLTCTFSGFSLSTSGMGINWIRQPPGKALEWLALIWWDDDKYYNPSLKNRLTITKDTSKNQVVLTMTNMDPVDTATYYCARSLITTAPSDYWGQGTLVTVSS
VL: DIQMTQSPSSLSASVGDRVTITCKASQNVGTAITWYQQRPGKAPKLLIYSASNRYTGVPSRFSGSGSGTDFTLTISNLQPEDLATYFCLQYSDYPLTFGQGTRLEIKR
notes: Human IgG1 heavy chain constant region and human Kappa light chain constant region
B2: 4E12HZ (anti-human PTK7 humanized antibody) (antibody, human IgG1, kappa, V domains shown)
VH: QVQLVQSGAEVKRPGASVKVSCKTSGYTFTDYAMHWVRQAPGKGLEWIGVISTYYGNVSYNQKFKGRVTMTRDTSTSTVYMELSSLTSEDTAIYYCARGFAYWGQGTLVTVSS
VL: DIVITQTELSLPVTPGERASISCRSSKSLQKKDGKTYLNWFLQKPGQSPQLLIYLMSTRASGVSDRFSGSGSGTDFTLKISRVEAEDVGVYYCQQLVEYPFTFGQGTKLEIKR
notes: as for B1
B3: 64A10HZ05 (VH3+VL2) (anti-human PTK7 humanized antibody) (antibody, human IgG1, kappa, V domains shown)
VH: QVQLQESGPGLVKPSETLSLTCTVSGFSLTSYGVYWVRQPPGKGLEWLGVIWTSGNTNYNPSLKSRLTISKDNSKNQVSLKLSSVTAADTAVYYCVKHDGGNYVGVMNYWGQGTLVTVSS
VL: DIQMTQSPSSLSASVGDRVTITCRASQSISDYLHWYQQKPGKAPKLLIKYASQSISGVPSRFSGSGSGSDFTLTISSLQPEDFATYYCQNGHSFPPTFGGGTKVEIKR
notes: as for B1

What was measured:
[1] = target: T1, human PTK7 on cells (tumor cells …); test: cell-based or functional assay
[2] = target: T1, human PTK7 on cells (tumor cells …); test: competition flow cytometry on 293T-hPTK7 cells, streptavidin-PE; competitor: biotin-labelled 19C2HZ
[3] = target: T2, monkey PTK7 protein (extracellular …); test: BLI (ForteBio), antibody on Protein A sensor, monkey PTK7 protein in solution
Excerpt: (§1) The dynamic affinity of the control Hu24 and candidate antibodies 64A10HZ, 101A6HZ, 4E12HZ and 19C2HZ with human PTK7-His was detected by using ForteBio (Pall life sciences).
ELISA and ForteBio were adopted to detect binding of the anti-human PTK7 chimeric and humanized antibodies to the monkey, mouse and rat PTK7 proteins.

[4] = target: T1, human PTK7 on cells (tumor cells …); test: flow cytometry on CHO-hPTK7 overexpression cells
Excerpt: (§2) A flow cytometer (Beckman, Cytoflex) was used for detecting the affinity of the anti-human PTK7 chimeric and humanized antibodies with human non-small cell lung cancer cells H1299, human lung adenocarcinoma cells H1975, human breast cancer cells T47D, human ovarian cancer cells OVCAR-3 (all purchased from NANJING COBIOER BIOSCIENCES CO., LTD) and CHO-hPTK7 overexpression cells.
(§3) The adherent cells were digested by using a pancreatin (Gibco) solution; a proper amount of cells were counted and taken, washed twice by using 1×PBS, and re-suspended in a 1% BSA solution; and then the cells were transferred into a 96-well deep plate at a density of 50 μl/well; a candidate antibody was diluted by using 1% BSA, then 50 μl of diluted antibody was added into the deep plate containing the cells, and incubated for 40 min at 4° C.; the cells were washed twice by using PBS, then 50 μl of diluted secondary antibody was added into each well, uniformly mixed, and incubated for 30 min at 4° C.; and the cells were washed twice by using PBS, then re-suspended in 400 μl of PBS, and subjected to examination by flow cytometer.

[5] = target: T1, human PTK7 on cells (tumor cells …); test: competition flow cytometry on 293T-hPTK7 cells, streptavidin-PE; competitor: biotin-labelled Hu24
[6] = target: T3, human PTK7 protein (extracellular …); test: BLI (ForteBio), antibody on Protein A sensor, human PTK7-His 200-3.125 nM, 1:1 global fit
Excerpt: as §1

[7] = target: T1, human PTK7 on cells (tumor cells …); test: competition flow cytometry on 293T-hPTK7 cells, streptavidin-PE; competitor: biotin-labelled 4E12HZ
[8] = target: T1, human PTK7 on cells (tumor cells …); test: flow cytometry on OVCAR-3 cells
Excerpt: as §2, §3

Binder | FADU cell endocytosis activity, EC50 [1] | IC50 (read off the curve) [2] | Kd [3] | EC50 [4] | IC50 (read off the curve) [5] | Kd [6] | koff [6] | kon [6] | IC50 (read off the curve) [7] | EC50 [8]
B1 | 0.134 µg/mL | ~0.8 µg/mL | 0.092 nM | 0.201 µg/mL | ~0.6 µg/mL | 3.7 nM | 0.000728 s⁻¹ | 197000 M⁻¹ s⁻¹ | – | –
B2 | 0.147 µg/mL | – | 9.68 nM | 0.0414 µg/mL | – | 22 nM | 0.00534 s⁻¹ | 243000 M⁻¹ s⁻¹ | ~0.1 µg/mL | –
B3 | – | – | – | – | – | – | – | – | – | 0.0397 µg/mL
